# Experimental data as given in patent US20210179666A1 (REGENTS OF THE UNIVERSITY OF MINNESOTA, published 2021).
# Numbered stars: 1 amine (or outer) side, 2 acyl side, 3 side chain; on linkers, the order of the positions; unused ones are H or OH. Square brackets hold non-standard residues; d marks the D form. N(2-Aminoethyl)Gly = O=C(CN(CCN[*:3])[*:1])[*:2]; Gly(N-(CH2)3-guanidino) = N=C(N)NCCCNCC(=O)O; Nphe = O=C(O)CNCc1ccccc1; Dap = NC[C@H](N)C(=O)O; Sar = CNCC(=O)O
# B1: 1 (MDE 6-82-3c) (peptide)
# peptide: cyclo(PRFFNAF[dP])
# modifications: also: assayed as TFA salt
# notes: AgRP 111-116 loop cyclized through DPro-Pro; Asn5 parent scaffold; assayed as TFA salt; also called Compound 1; c[Pro-Arg-Phe-Phe-Asn-Ala-Phe-DPro]
# B2: 2 (MDE 6-82-1c) (peptide)
# peptide: PRFFXAFP
# modifications: head-to-tail cyclic; Dap (diaminopropionic acid) at 5; DPro at 8
# notes: Dap5 parent scaffold; assayed as TFA salt; also called Compound 2; c[Pro-Arg-Phe-Phe-Dap-Ala-Phe-DPro]
# B3: ZMK 3-20 (peptide)
# peptide: cyclo(PCFF[Dap]AF[dP])
# notes: Arg111Cys SNP in the Dap scaffold; also called c[Pro-Cys-Phe-Phe-Dap-Ala-Phe-DPro]
# B4: ZMK 2-112 (peptide)
# peptide: cyclo(PRYF[Dap]AF[dP])
# notes: Phe112Tyr SNP in the Dap scaffold; also called c[Pro-Arg-Tyr-Phe-Dap-Ala-Phe-DPro]
# B5: ZMK 2-99 (peptide)
# peptide: cyclo(PHFF[Dap]AF[dP])
# notes: Arg111His SNP in the Dap scaffold; also called c[Pro-His-Phe-Phe-Dap-Ala-Phe-DPro]
# B6: ZMK 2-85 (peptide)
# peptide: cyclo(PRFF[Dap]VF[dP])
# notes: Ala115Val SNP in the Dap scaffold; also called c[Pro-Arg-Phe-Phe-Dap-Val-Phe-DPro]
# B7: ZMK 2-110 (peptide)
# peptide: cyclo(PRYFNAF[dP])
# notes: Phe112Tyr SNP in the Asn scaffold; also called c[Pro-Arg-Tyr-Phe-Asn-Ala-Phe-DPro]
# B8: ZMK 2-96 (peptide)
# peptide: cyclo(PHFFNAF[dP])
# notes: Arg111His SNP in the Asn scaffold; also called c[Pro-His-Phe-Phe-Asn-Ala-Phe-DPro]
# B9: MDE8-108-7c (peptide)
# peptide: PRFFXAFP
# modifications: head-to-tail cyclic; Dap at 5; NPhe (N-benzylglycine) at 7; DPro at 8
# B10: MDE9-111c (peptide)
# peptide: cyclo(PRFF[N(2-Aminoethyl)Gly]AF[dP])
# B11: MDE8-108-6c (peptide)
# peptide: PRFFXAFP
# modifications: head-to-tail cyclic; Dap at 5; NAla (N-methylglycine) at 6; DPro at 8
# B12: MDE7-26-4c (peptide)
# peptide: cyclo(PRFFN[Sar]F[dP])
# SMILES: CN1CC(=O)N[C@@H](Cc2ccccc2)C(=O)N2CCC[C@@H]2C(=O)N2CCC[C@H]2C(=O)N[C@@H](CCCNC(=N)N)C(=O)N[C@@H](Cc2ccccc2)C(=O)N[C@@H](Cc2ccccc2)C(=O)N[C@@H](CC(N)=O)C1=O
# B13: MDE7-26-1c (peptide)
# peptide: cyclo(P[Gly(N-(CH2)3-guanidino)]FFNAF[dP])
# SMILES: C[C@@H]1NC(=O)[C@H](CC(N)=O)NC(=O)[C@H](Cc2ccccc2)NC(=O)[C@H](Cc2ccccc2)NC(=O)CN(CCCNC(=N)N)C(=O)[C@@H]2CCCN2C(=O)[C@H]2CCCN2C(=O)[C@H](Cc2ccccc2)NC1=O
# B14: MDE9-32c (peptide)
# peptide: PRFFXAFP
# modifications: head-to-tail cyclic; NPhe (N-benzylglycine) at 3; Dap at 5; DPro at 8
# B15: MDE9-93c (peptide)
# peptide: PRFFXAFP
# modifications: head-to-tail cyclic; NPhe (N-benzylglycine) at 4; Dap at 5; DPro at 8
# B16: MDE9-88c (peptide)
# peptide: cyclo(PRF[Nphe]NAF[dP])
# B17: MDE7-26-5c (peptide)
# peptide: cyclo(PRFFNA[Nphe][dP])
# B18: MDE8-108-3c (peptide)
# peptide: PRFFXAFP
# modifications: head-to-tail cyclic; NArg (N-(3-guanidino-propyl)-glycine) at 2; Dap at 5; DPro at 8
# B19: MDE9-77c (peptide)
# peptide: cyclo(PR[Nphe]FNAF[dP])
# Target: T1, mouse melanocortin 1 receptor (mouse, UniProt Q01727 1-315)
# T1 construct: whole, on cells; also called mMC1R; MC1R
# Assay: 125I-NDP-MSH competition, HEK293 cells
# T1 sequence (Q01727 whole entry): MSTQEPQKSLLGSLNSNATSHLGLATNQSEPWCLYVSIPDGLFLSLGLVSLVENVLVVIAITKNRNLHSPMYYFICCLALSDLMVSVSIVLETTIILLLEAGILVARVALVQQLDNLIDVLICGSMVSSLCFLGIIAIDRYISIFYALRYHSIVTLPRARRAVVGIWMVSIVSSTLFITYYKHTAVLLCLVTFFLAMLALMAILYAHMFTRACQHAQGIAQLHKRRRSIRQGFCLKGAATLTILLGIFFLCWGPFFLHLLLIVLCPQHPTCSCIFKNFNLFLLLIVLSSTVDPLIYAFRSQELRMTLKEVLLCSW
row,IC50 [µM],Binder
1,9,B1
2,5.2,B2
3,33,B3
4,18,B4
5,25,B5
6,8,B6

# Target: T2, mouse melanocortin 4 receptor (mouse, UniProt P56450 1-332)
# T2 construct: whole, on cells; also called mMC4R; MC4R
# Assay: 125I-NDP-MSH competition, HEK293 cells
# T2 sequence (P56450 whole entry): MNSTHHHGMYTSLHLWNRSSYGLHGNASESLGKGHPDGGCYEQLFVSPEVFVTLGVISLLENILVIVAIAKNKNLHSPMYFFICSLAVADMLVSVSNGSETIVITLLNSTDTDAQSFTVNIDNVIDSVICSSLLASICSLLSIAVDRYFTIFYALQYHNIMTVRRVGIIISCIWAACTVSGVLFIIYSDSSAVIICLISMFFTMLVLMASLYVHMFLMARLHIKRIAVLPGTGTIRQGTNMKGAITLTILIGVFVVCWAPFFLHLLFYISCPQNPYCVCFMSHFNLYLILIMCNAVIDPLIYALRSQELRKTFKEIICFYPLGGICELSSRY
row,IC50 [µM],Binder
1,2,B7
2,6.7,B8
3,10,B3
4,0.134,B4
5,1,B5

# Target: T3, mouse melanocortin 3 receptor (mouse, UniProt P33033 1-323)
# T3 construct: whole, on cells; also called mMC3R; MC3R
# Assay: 125I-NDP-MSH competition, HEK293 cells
# T3 sequence (P33033 whole entry): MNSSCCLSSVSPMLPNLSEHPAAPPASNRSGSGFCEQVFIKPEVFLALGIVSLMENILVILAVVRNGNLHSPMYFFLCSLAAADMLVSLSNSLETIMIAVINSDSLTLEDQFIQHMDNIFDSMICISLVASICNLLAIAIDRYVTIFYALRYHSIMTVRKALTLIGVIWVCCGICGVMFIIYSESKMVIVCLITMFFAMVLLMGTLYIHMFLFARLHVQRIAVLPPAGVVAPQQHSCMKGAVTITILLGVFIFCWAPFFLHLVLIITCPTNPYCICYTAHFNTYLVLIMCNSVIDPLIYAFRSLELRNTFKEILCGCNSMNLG
row,IC50 [µM],Binder
1,49,B3
2,28,B4
3,15,B5
4,10,B6

# Target: T4, mouse melanocortin 5 receptor (mouse, UniProt P41149 1-325)
# T4 construct: whole, on cells; also called mMC5R; MC5R
# Assay: 125I-NDP-MSH competition, HEK293 cells
# T4 sequence (P41149 whole entry): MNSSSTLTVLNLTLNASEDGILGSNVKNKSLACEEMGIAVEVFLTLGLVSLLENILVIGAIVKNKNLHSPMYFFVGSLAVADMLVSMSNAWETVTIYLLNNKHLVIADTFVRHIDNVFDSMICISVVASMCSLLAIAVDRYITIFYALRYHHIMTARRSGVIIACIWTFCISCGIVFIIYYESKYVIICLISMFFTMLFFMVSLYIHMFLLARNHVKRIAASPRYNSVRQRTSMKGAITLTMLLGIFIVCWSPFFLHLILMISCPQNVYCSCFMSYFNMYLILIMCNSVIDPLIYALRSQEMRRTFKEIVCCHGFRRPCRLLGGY
row,IC50 [µM],Binder
1,1.7,B2
2,36,B4
3,12,B5
4,2.7,B6

# Target: T1, mouse melanocortin 1 receptor
# Assay: 125I-NDP-MSH competition; fold vs SEQ ID NO: 2 control
row,Fold Diff [fold],Binder
1,6,B3
2,4,B4
3,5,B5

# Target: T2, mouse melanocortin 4 receptor
# Assay: as above
row,Fold Diff [fold],Binder
1,5200,B3
2,70,B4
3,500,B5

# Target: T3, mouse melanocortin 3 receptor
# Assay: as above
row,Fold Diff [fold],Binder
1,15,B3
2,9,B4
3,5,B5

# Target: T4, mouse melanocortin 5 receptor
# Assay: as above
row,Fold Diff [fold],Binder
1,20,B4
2,7,B5

# Target: T1, mouse melanocortin 1 receptor
# Assay: cell-based or functional assay
EC50 (cAMP agonist) [µM],percent maximal stimulatory response at 100 µM (cAMP) [%],EC50 (cAMP partial agonist) [µM],"Partial Agonist, percent of NDP-MSH (cAMP) [%]",Binder
> 100,–,–,–,B9
–,60,–,–,B10
> 100,–,–,–,B11
1,–,–,–,B12
–,–,3.1,50,B13
–,36,–,–,B2
–,–,0.11,80,B14
–,–,2.7,60,B15
–,–,5.6,70,B16
–,85,–,–,B17
> 100,–,–,–,B18
0.24,–,–,–,B19

# Target: T2, mouse melanocortin 4 receptor
# Assay: cell-based or functional assay
row,"pA2 (Schild analysis, agonist NDP-MSH, cAMP)",Binder
1,6.6,B9
2,6.1,B11
3,< 5.5,B12
4,< 5.5,B13
5,8.4,B16
6,< 5.5,B17
7,< 5.5,B19

# Target: T3, mouse melanocortin 3 receptor
# Assay: cell-based or functional assay
EC50 (cAMP agonist) [µM],"pA2 (Schild analysis, agonist NDP-MSH, cAMP)",percent maximal stimulatory response at 100 µM (cAMP) [%],Binder
> 100,–,–,B9
> 100,6.9,–,B10
> 100,5.6,–,B11
–,6.5,20,B2
> 100,6.9,–,B14
> 100,7.1,–,B15
–,–,60,B17
> 100,5.9,–,B18

# Target: T4, mouse melanocortin 5 receptor
# Assay: cell-based or functional assay
"Inverse Agonist, percent decrease from basal (cAMP) [%]",EC50 (cAMP agonist) [µM],EC50 (cAMP partial agonist) [µM],"Partial Agonist, percent of NDP-MSH (cAMP) [%]",Binder
-10,–,–,–,B9
-10,–,–,–,B10
–,> 100,–,–,B11
-10,–,–,–,B2
–,–,0.55,70,B14
-10,–,–,–,B15
–,> 100,–,–,B18

# Target: T5, human melanocortin 4 receptor (human, UniProt P32245 1-332)
# T5 construct: whole, on cells; the assays used the receptor on HEK293 cells; also called hMC4R
# Assay: 125I-NDP-MSH competition; fold vs SEQ ID NO: 1 control
# T5 sequence (P32245 whole entry): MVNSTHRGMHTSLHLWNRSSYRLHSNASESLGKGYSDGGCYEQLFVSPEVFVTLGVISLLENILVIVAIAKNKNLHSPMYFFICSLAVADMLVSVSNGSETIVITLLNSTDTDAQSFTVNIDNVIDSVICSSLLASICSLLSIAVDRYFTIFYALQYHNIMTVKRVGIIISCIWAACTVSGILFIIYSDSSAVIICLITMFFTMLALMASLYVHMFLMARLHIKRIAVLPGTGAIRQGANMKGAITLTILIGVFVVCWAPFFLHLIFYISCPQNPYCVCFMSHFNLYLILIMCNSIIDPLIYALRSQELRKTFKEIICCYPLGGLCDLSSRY
row,Fold Diff [fold],Binder
1,2000,B7
2,300,B8

# Target: T1, mouse melanocortin 1 receptor
# Assay: cell-based or functional assay
# Remark: another data set of the same source
EC50 (cAMP agonist) [µM],percent maximal stimulatory response at 100 µM (cAMP) [%],Binder
> 100,–,B7
–,23,B8
4,–,B3
–,48,B4
–,56,B5
–,79,B6

# Target: T2, mouse melanocortin 4 receptor
# Assay: cell-based or functional assay
# Remark: another data set of the same source
EC50 (cAMP agonist) [µM],"pA2 (Schild analysis, agonist NDP-MSH, cAMP)",percent maximal stimulatory response at 100 µM (cAMP) [%],Binder
> 100,6.1,–,B7
> 100,5.3,–,B8
–,< 5,42,B3
> 100,7.3,–,B4
> 100,6,–,B5
–,–,37,B6

# Target: T3, mouse melanocortin 3 receptor
# Assay: cell-based or functional assay
# Remark: another data set of the same source
EC50 (cAMP agonist) [µM],"pA2 (Schild analysis, agonist NDP-MSH, cAMP)",percent maximal stimulatory response at 100 µM (cAMP) [%],Binder
> 100,5.8,–,B7
> 100,< 5,–,B8
–,< 5,29,B3
> 100,6.5,–,B4
> 100,5.4,–,B5
–,6.1,27,B6

# Target: T4, mouse melanocortin 5 receptor
# Assay: cell-based or functional assay
# Remark: another data set of the same source
EC50 (cAMP agonist) [µM],"pA2 (Schild analysis, agonist NDP-MSH, cAMP)",Binder
> 100,–,B8
> 100,–,B3
> 100,6.5,B4
> 100,–,B5
> 100,6.3,B6

# Target: T5, human melanocortin 4 receptor
# Assay: 125I-NDP-MSH competition; fold vs SEQ ID NO: 2 control
row,Fold Diff [fold],Binder
1,2100,B3
2,100,B4
3,400,B5

# Target: T2, mouse melanocortin 4 receptor
# Assay: 125I-NDP-MSH competition; fold vs SEQ ID NO: 1 control
row,Fold Diff [fold],Binder
1,100,B7
2,300,B8

# Target: T5, human melanocortin 4 receptor
# Assay: 125I-NDP-MSH competition, HEK293 cells
row,IC50 [µM],Binder
1,14.3,B7
2,22,B8
3,15.7,B3
4,1.02,B4
5,2.7,B5
6,0.0322,B6

# Target: T5, human melanocortin 4 receptor
# Assay: cell-based or functional assay
row,"pA2 (Schild analysis, agonist NDP-MSH, cAMP)",Binder
1,6.5,B7
2,5.8,B8
3,< 5,B3
4,7.5,B4
5,6.4,B5
6,7.6,B6
